From article PMC11040149

Biological target: RNA ligase from Palaeococcus pacificus (PpaRnl), wild-type (Palaeococcus pacificus)
Assay: SEC

Substance: RNA ligase from Palaeococcus pacificus (PpaRnl), wild-type (enzyme)
- stoichiometry N: 2
